# Laboratory results published in patent publication US20250027068A1 (published 2025).
# Positions count from the first letter of the chain named.
# B1: PRT-194 (enzyme)
# chain: MANQEIRYSEVTPYHVTSVWTKGVTPPDHDFANFTQGEDVFHAPYVANQGWYDITKTFNGKDDLLCGAATAGNMLHWWFDQNKDQIKRYLEEHPEKQKINFNGEQMFDVKEAIDTKNHQLDSKLFEYFKEKAFPYLSTKHLGVFPDHVIDMFINGYRLSLTNHGPTPVKEGSKDPRGGIFDAVFTRGDQSKLLTSRHDFKEKNLKEISDLIKKELTEGKALGLSHTYANVRHSINHVINLWGADFDSNGNLKAIYVTDSDDKKLTISNASIGMKKYFVGVNSAGKVAISAKEIKEDNIGAQVLGLFTLSTGQDSWNQTN
# B2: PRT-195 (enzyme)
# chain: B1 chain with A32R, N33K, F34I, T35V, Q36D, S267G, N268D, A269E, S270R
# B3: PRT-209 (enzyme)
# chain: MEVVEVWPYGQNPNGKTEILSQTEDSESLQRLRDIEDFQAEKKKQGVVYTKWLDGVDVDDHDFRKIVDGNIAYYATPLLNGKGFYDINKDFNRDSDKCAAAVAANMFHYWLDQNRDNVDRFLRQNPEKHGIIELPDGQLKLSDFLNTYESDNGYRDKSKLFDFISNNFNGPVWTDKLLDNYINGYAYNYKYGRTIEDPTKNTSKINFFKDVFNEKILTNIHSIRNYNTFSNLLSEALYTGKAIGLSYGPAGLRHSLGHIISVWGADLDEDGNVVAIYVTDSDDKKLTIGDERVGLKRYKISTDDEGRARLTAYEENDNTGGEIRGLYTLDTGKQAWADYFDKTEQTGTDQAEQLEHHHHHH
# B4: PRT-196 (enzyme)
# chain: MEVVEVWPYGQNPNGKTEILSQTEDSESLQRLRDIEDFQAEKKMQNVVYTKWLDGVDVKDHDFRKIVDGNIAYYATPLLNGRGFYDINKDFNRDSDKCAAAVAANMFHYWLDINRDNVDRFLRQNPEKHGIIELPDGQLKLSDFLNTYESDHGYRDKSKLFDFISNNFNGPVWTDKLLDNYINGYAYNYKYGRTIEDPTKNTSKINFFKEVFNEKILTNNHSIRNQNEFSVLLSEALYTGKAIGLSYGPAGLRHSLGHIISVWGADLDADGNVVAIYVTDSDDKKLTIGDERVGLKRYKISTDDENRLRLTAYEETHNTGGQIRGLWTLDTGKYAWADYFDKTEQTGTDQAEQLEHHHHHH
# B5: PRT-204 (enzyme)
# chain: B4 chain with D57T, I113R, R123S, H152N, N220I, V231D, N306G, L308A, H317D, W327E
# B6: PRT-201 (enzyme)
# chain: B4 chain with M44K, V67K, A72E, I113R, H152D, N306G, L308A, W327Y, Y334Q
# B7: PRT-198 (enzyme)
# chain: B4 chain with M44K, N46G, V231D, W327Y, Y334Q
# B8: PRT-199 (enzyme)
# chain: B4 chain with M44K, I113R, H152D, N306G, Y334Q
# B9: PRT-202 (enzyme)
# chain: B4 chain with M44K, H152Y, E210K, N220I, V231D, N306G, H317D, Q322E, W327Y, Y334Q
# B10: PRT-203 (enzyme)
# chain: B4 chain with M44K, V67K, A72E, I113R, H152D, N306G, L308A, Y334Q
# B11: PRT-197 (enzyme)
# chain: B4 chain with V231D, L308A, H317D, W327Y, Y334Q
# B12: PRT-200 (enzyme)
# chain: B4 chain with V231D, L308A, H317D, Y334Q
# B13: PRT-206 (enzyme)
# chain: MEVVEVWPYGQNPNGKTEILSQTEDSESLQRLRDIEDFQAEKKKENVVYTKWLDGVTVKDHDFRKIVDGNIAYYATPLLNGRGFYDINKDFNRDSDKCAAAVAANMFHYWLDINRDNVDRFLRQNPEKHGIIELPDGQLKLSDFLNTYESDDGYRDKSKLFDFISNNFNGPVWTDKLLDNYINGYGYNYKYGRTIEDPTKNTSKINFFKEVFNEKILTDNHSIRDQNEFSDLLSEALYTGKAIGLSYGPAGLRHSLGHIISVWGADLDADGNVVAIYVTDSDDKKLTIGDERVGLKRYKISYDDEGRARLTAYEEKDNTGGQIRGLYTLDTGKQAWADYFDKTEQTGTDQAEQLEHHHHHH
# B14: PRT-208 (enzyme)
# chain: B13 chain with Y327W
# B15: PRT-205 (enzyme)
# chain: MEVVEVWPYGQNPNGKTEILSQTEDSESLQRLRDIEDFQAEKKKEGVVYTKWLDGVDVDDHDFRKIVDGNIAYYATPLLNGRGFYDINKDFNRDSDKCAAAVAANMFHYWLDRNRDNVDRFLKQNPEKHGIIELPDGQLKLSDFLNTYESDNGYRDKSKLFDFISNNFNGPVWTDKLLDNYINGYAYNYKYGRTIEDPTKNTSKINFFKEVFNEKILTNNHSIRNYNTFSDLLSEALYTGKAIGLSYGPAGLRHSLGHIISVWGADLDADGNVVAIYVTDSDDKKLTIGDERVGLKRYKVSSDDENRLRLTAYEETHNTGGQIRGIYTLDTGKQAWADYFDKTEQTGTDQAEQLEHHHHHH
# B16: PRT-207 (enzyme)
# chain: B15 chain with Y327W
# B17: PRT-210 (enzyme)
# chain: MEVVEVWPYGQNPNGKTEILSQTEDSESLQRLRDIEDFQAEKKKQNVVYTKWLDGVTVDDHDFRKITDGNTAYYATPLLNGRGFYDINKDFNRDSDKCAAAVAANMFHYWLDQNRDNVDRFLKQNPEKHGIIELPDGQLKLSDFLNTYESDDGYRDKSKLFDFISNNFNGPVWTDKLLDNYINGYAYNYKYGRTIEDPTKNTSKINFFKEVFNEKLLTNNHSIRNQNEFSDLLSEALYTGKAIGLSYGPAGLRHSLGHIISVWGADFDADGNVVAIYVTDSDDKKLTIGDERVGLKRYKISSDDEGRARLTAYTEKHNTGGQIRGLYTLDTGKQEWADYFDKTEQTGTDQAEQLEHHHHHH
# Biological target: pooled human IgG (human)
# Assay: cell-based or functional assay
# Also: test concentration or dose not given here.
Binder,Enzyme Activity Endpoint Assay (purified): Fab′2 [ng/µL],Enzyme Activity Endpoint Assay (purified): Fc [ng/µL],Enzyme Activity Endpoint Assay (purified): IgG [ng/µL],Enzyme Activity Endpoint Assay (purified): scIgG [ng/µL]
B1,0,12,301,0
B2,0,30,829,15
B3,0,124,1670,71
B4,152,498,707,504
B5,0,0,2260,0
B6,0,0,2720,0
B7,621,0,2320,0
B8,95,473,797,544
B9,25,402,1130,553
B10,0,0,2130,0
B11,0,179,1800,121
B12,0,0,2510,0
B13,570,0,2130,0
B14,0,153,1700,113
B15,127,216,1090,278
B16,0,249,1290,287
B17,0,87,1780,25
